Here are results for one substance from US6808877B2, “Ligands for FPR class receptors that induce a host immune response to a pathogen or inhibit HIV infection” (priority 2000, dated 2004).

The target of the experiment is T1, FPR (Homo sapiens, UniProt P21462).
T1 construct: H. Ali and R. Snyderman (Duke University); host or cells: RBL-2H3 rat basophilic leukemia cells
T1 sequence (P21462 1-350): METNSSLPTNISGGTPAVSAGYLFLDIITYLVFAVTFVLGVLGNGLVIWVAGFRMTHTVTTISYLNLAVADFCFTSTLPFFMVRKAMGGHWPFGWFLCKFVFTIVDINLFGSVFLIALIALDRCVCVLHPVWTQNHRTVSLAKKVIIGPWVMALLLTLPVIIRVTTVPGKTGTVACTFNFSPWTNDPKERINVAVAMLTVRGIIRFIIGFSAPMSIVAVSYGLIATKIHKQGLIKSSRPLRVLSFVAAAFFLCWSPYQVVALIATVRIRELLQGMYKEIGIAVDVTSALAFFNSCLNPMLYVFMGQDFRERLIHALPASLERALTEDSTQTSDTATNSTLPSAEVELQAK
Briefly: Migration of ETFR cells. Format: cell-based. The settings on record: ETFR cells (overexpressing FPR).

For “TRPNYNKRKRIHIGPGRAFYTTKNIIGTIRQAH-NH2 [V3 peptide]”, the migration / chemotaxis entry is listed as “low level of chemotaxis response”.
